Measurements: patent WO2010106812A1

Biological target: soluble recombinant human IL-6 receptor (human) (UniProt P08887)
Assay: Biacore T100, biotinylated SR344 immobilised via streptavidin as model of membrane-type IL-6 receptor, dissociation at pH 7.4 and pH 5.8, 37 degrees C

Sequence of soluble recombinant human IL-6 receptor (human) (P08887 20-344, form in doubt): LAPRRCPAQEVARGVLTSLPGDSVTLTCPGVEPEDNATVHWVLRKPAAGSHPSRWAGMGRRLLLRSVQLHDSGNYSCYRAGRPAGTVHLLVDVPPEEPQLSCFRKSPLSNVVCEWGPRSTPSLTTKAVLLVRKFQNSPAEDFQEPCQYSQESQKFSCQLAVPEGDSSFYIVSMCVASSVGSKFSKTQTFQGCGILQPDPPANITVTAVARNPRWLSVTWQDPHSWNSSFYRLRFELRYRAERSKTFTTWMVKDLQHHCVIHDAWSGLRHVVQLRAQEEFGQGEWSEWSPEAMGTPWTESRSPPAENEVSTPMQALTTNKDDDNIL

Binder	fold improvement of the pH dependency of the dissociation rate (pH 5.8 against pH 7.4) over TOCILIZUMAB [times]	fold increase of the pH dependence of the dissociation rate (pH 5.8 against pH 7.4) over TOCILIZUMAB [times]
Fv3-M73 (antibody, V domains shown) VH: QVQLQESGPGLVKPSETLSLTCAVSGHSISHDHAWSWVRQPPGEGLEWIGFISYSGITNYNPTLQGRVTISRDNSKNTLYLQMNSLRAEDTAVYYCARSLARTTAMDYWGEGTLVTVSS VL: DIQMTQSPSSLSASVGDSVTITCQASRDISSHLNWYQQKPGKAPELLIYYGSHLLSGVPSRFSGSGSGTDFTFTISSLEAEDAATYYCGQGNRLPYTFGQGTKVEIER	11	
Fv4-M73 (antibody, V domains shown) VH: QVQLQESGPGLVKPSETLSLTCAVSGHSISHDHAWSWVRQPPGEGLEWIGFISYSGITNYNPSLQGRVTISRDNSKNTLYLQMNSLRAEDTAVYYCARSLARTTAMDYWGEGTLVTVSS VL: DIQMTQSPSSLSASVGDSVTITCQASTDISSHLNWYQQKPGKAPELLIYYGSHLLSGVPSRFSGSGSGTDFTFTISSLEAEDAATYYCGQGNRLPYTFGQGTKVEIER	10	
H3pI/L73 (antibody, human IgG1, kappa, V domains shown) VH: QVQLQESGPGLVKPSETLSLTCAVSGHSISHDHAHSWVRQPPGEGLEWIGYISYSGITNYNPSLKGRVTISRDTSKNQFSLKLSSVTAADTAAYYCARSLARTTAMDYWGEGTLVTVSS VL: DIQMTQSPSSLSASVGDSVTITCQASQHISSHLNWYQQKPGKAPELLIYYGSHLHSGVPSRFSGSGSGTDFTFTISSLEAEDAATYYCGQGNRLPYTFGQGTKVEIER		2.6
